Source: patent publication US20200270325A1 (Merck Sharp & Dohme, published 2020)
Numbered stars: 1 amine (or outer) side, 2 acyl side, 3 side chain; on linkers, the order of the positions; unused ones are H or OH. Square brackets hold non-standard residues; d marks the D form. Side chains are listed from the residue outwards. Ends that are not written are not given here. * marks the point of attachment. C18 diacid = O=C(O)CCCCCCCCCCCCCCCCC(=O)*; C16 diacid = O=C(O)CCCCCCCCCCCCCCC(=O)*; γGlu = O=C(O)[C@H](CCC(=O)[*:2])N[*:1]; Met(O2) = CS(=O)(=O)CC[C@H](N)C(=O)O; αMeD = C[C@](N)(CC(=O)O)C(=O)O; αMeS = C[C@](N)(CO)C(=O)O; AEEA = NCCOCCOCC(=O)O

Experiments:
[1] = molecular target: human Glucagon receptor (GCGR) (human, UniProt P47871 26-477); assay: cell-based or functional assay
Sequence of human Glucagon receptor (GCGR) (P47871 26-477): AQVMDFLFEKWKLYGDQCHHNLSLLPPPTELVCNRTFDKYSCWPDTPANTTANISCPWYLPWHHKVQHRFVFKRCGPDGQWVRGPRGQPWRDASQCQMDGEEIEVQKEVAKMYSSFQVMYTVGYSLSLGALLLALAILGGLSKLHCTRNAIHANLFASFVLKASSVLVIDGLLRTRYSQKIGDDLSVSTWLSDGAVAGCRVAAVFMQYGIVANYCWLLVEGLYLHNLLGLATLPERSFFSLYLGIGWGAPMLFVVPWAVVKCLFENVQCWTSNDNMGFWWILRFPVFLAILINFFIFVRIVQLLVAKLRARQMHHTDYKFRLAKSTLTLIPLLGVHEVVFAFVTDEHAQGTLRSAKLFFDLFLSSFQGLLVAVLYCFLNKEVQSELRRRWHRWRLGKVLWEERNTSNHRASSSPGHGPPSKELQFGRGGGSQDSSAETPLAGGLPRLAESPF

[2] = molecular target: human GLP-1 receptor (GLP1R) (human, UniProt P43220 24-463); assay: cell-based or functional assay

Row | Binder | GCGR EC50 human [1] | GLP1R EC50 human [2]
1 | H[αMeS]QGTFTSDYSKYLDARAAQK([AEEA-AEEA-γGlu-C18 diacid])FVQWL[Met(O2)][αMeD]T-NH2 (N-terminus assumed; SMILES CC(C)C[C@H](NC(=O)[C@H](Cc1ccc(O)cc1)NC(=O)[C@H](CCCCN)NC(=O)[C@H](CO)NC(=O)[C@H](Cc1ccc(O)cc1)NC(=O)[C@H](CC(=O)O)NC(=O)[C@H](CO)NC(=O)[C@@H](NC(=O)[C@H](Cc1ccccc1)NC(=O)[C@@H](NC(=O)CNC(=O)[C@H](CCC(N)=O)NC(=O)[C@](C)(CO)NC(=O)[C@@H](N)Cc1c[nH]cn1)[C@@H](C)O)[C@@H](C)O)C(=O)N[C@@H](CC(=O)O)C(=O)N[C@@H](C)C(=O)N[C@@H](CCCNC(=N)N)C(=O)N[C@@H](C)C(=O)N[C@@H](C)C(=O)N[C@@H](CCC(N)=O)C(=O)N[C@@H](CCCCNC(=O)COCCOCCNC(=O)COCCOCCNC(=O)CC[C@H](NC(=O)CCCCCCCCCCCCCCCCC(=O)O)C(=O)O)C(=O)N[C@@H](Cc1ccccc1)C(=O)N[C@H](C(=O)N[C@@H](CCC(N)=O)C(=O)N[C@@H](Cc1c[nH]c2ccccc12)C(=O)N[C@@H](CC(C)C)C(=O)N[C@@H](CCS(C)(=O)=O)C(=O)N[C@@](C)(CC(=O)O)C(=O)N[C@H](C(N)=O)[C@@H](C)O)C(C)C) [TP617] | 560 pM | 760 pM
2 | H[αMeS]QGTFTSDYSKYLDARAAK([AEEA-AEEA-γGlu-C18 diacid])DFVQWL[Met(O2)][αMeD]T-NH2 (N-terminus assumed; SMILES CC(C)C[C@H](NC(=O)[C@H](Cc1ccc(O)cc1)NC(=O)[C@H](CCCCN)NC(=O)[C@H](CO)NC(=O)[C@H](Cc1ccc(O)cc1)NC(=O)[C@H](CC(=O)O)NC(=O)[C@H](CO)NC(=O)[C@@H](NC(=O)[C@H](Cc1ccccc1)NC(=O)[C@@H](NC(=O)CNC(=O)[C@H](CCC(N)=O)NC(=O)[C@](C)(CO)NC(=O)[C@@H](N)Cc1c[nH]cn1)[C@@H](C)O)[C@@H](C)O)C(=O)N[C@@H](CC(=O)O)C(=O)N[C@@H](C)C(=O)N[C@@H](CCCNC(=N)N)C(=O)N[C@@H](C)C(=O)N[C@@H](C)C(=O)N[C@@H](CCCCNC(=O)COCCOCCNC(=O)COCCOCCNC(=O)CC[C@H](NC(=O)CCCCCCCCCCCCCCCCC(=O)O)C(=O)O)C(=O)N[C@@H](CC(=O)O)C(=O)N[C@@H](Cc1ccccc1)C(=O)N[C@H](C(=O)N[C@@H](CCC(N)=O)C(=O)N[C@@H](Cc1c[nH]c2ccccc12)C(=O)N[C@@H](CC(C)C)C(=O)N[C@@H](CCS(C)(=O)=O)C(=O)N[C@@](C)(CC(=O)O)C(=O)N[C@H](C(N)=O)[C@@H](C)O)C(C)C) [TP616] | 1390 pM | 1960 pM
3 | H[αMeS]QGTFTSDYSKYLDARAAQK([AEEA-AEEA-γGlu-C16 diacid])FVQWL[Met(O2)][αMeD]T-NH2 (N-terminus assumed; SMILES CC(C)C[C@H](NC(=O)[C@H](Cc1ccc(O)cc1)NC(=O)[C@H](CCCCN)NC(=O)[C@H](CO)NC(=O)[C@H](Cc1ccc(O)cc1)NC(=O)[C@H](CC(=O)O)NC(=O)[C@H](CO)NC(=O)[C@@H](NC(=O)[C@H](Cc1ccccc1)NC(=O)[C@@H](NC(=O)CNC(=O)[C@H](CCC(N)=O)NC(=O)[C@](C)(CO)NC(=O)[C@@H](N)Cc1c[nH]cn1)[C@@H](C)O)[C@@H](C)O)C(=O)N[C@@H](CC(=O)O)C(=O)N[C@@H](C)C(=O)N[C@@H](CCCNC(=N)N)C(=O)N[C@@H](C)C(=O)N[C@@H](C)C(=O)N[C@@H](CCC(N)=O)C(=O)N[C@@H](CCCCNC(=O)COCCOCCNC(=O)COCCOCCNC(=O)CC[C@H](NC(=O)CCCCCCCCCCCCCCC(=O)O)C(=O)O)C(=O)N[C@@H](Cc1ccccc1)C(=O)N[C@H](C(=O)N[C@@H](CCC(N)=O)C(=O)N[C@@H](Cc1c[nH]c2ccccc12)C(=O)N[C@@H](CC(C)C)C(=O)N[C@@H](CCS(C)(=O)=O)C(=O)N[C@@](C)(CC(=O)O)C(=O)N[C@H](C(N)=O)[C@@H](C)O)C(C)C) [TP615] | 260 pM | 400 pM
